Measured values as given in the supplement of paper PMC12042874.
± gives the uncertainty stated by the source.

Assay: amyloid nucleation score (Sup35N fusion, yeast selection) (log enrichment); library NNK2; higher = more nucleation; inactive = no reads after selection
How it was run: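 Three technical output replicates were used for random libraries. Psi-negative yeast expressing peptides of 20 random codons fused to Sup35N were induced with 100 μM copper sulfate for 24 hours and grown 7 days at 30°C on medium lacking adenine and uracil, and input and output plasmid inserts were Illumina-sequenced, excluding sequences with under 100 input reads. The nucleation score is the DiMSum log enrichment of output over input reads, centred on the mode score of non-aggregating sequences.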

Row | Substance | amyloid nucleation score
1 | GSSGLCIRSSLIYFVCQTVW | 6.903 ± 0.054
2 | GSSVDGADMIGTLK | 1.46 ± 0.28
3 | GSTKFSRDERIAEGGNRGNK | -0.007 ± 0.3
4 | GSVREQNFISRASLYAHGLS | -0.095 ± 0.29
5 | GSWLLGMMVLQRILMNG | 1.41 ± 0.44
6 | GSYDLEGGLLHGLTTTSYNR | -0.235 ± 0.55
7 | GSYGQVHSWYVCDFPGWVLR | 0.438 ± 0.57
8 | GSYSWSELSCMLFLFVGVSR | 0.411 ± 0.53
9 | GSYTHARINSVIFNRYTLCS | 0.219 ± 1
10 | GTFIGVNLN | inactive
11 | GTQRAYGVKGKLETDLIRLK | 8.554 ± 0.059
12 | GTRTISLKGPSGYYA | -0.689 ± 0.41
13 | GTSVIHISYFIYYPGDRVRR | 6.811 ± 0.052
14 | GTTWRRINECCSRANKMAPV | 0.029 ± 0.35
15 | GTVLAIRQLVSRCSGGVVGG | 1.28 ± 0.24
16 | GVAMNNCGIMDSREHGFGIR | 0.436 ± 0.36
17 | GVCVQGMFSVSYATILYKVA | 1.02 ± 0.2
18 | GVFASSLLVFQLFFISPSNG | 6.181 ± 0.028
19 | GVIVCTWPRPRDCS | 0.72 ± 0.58
20 | GVLGTLF | -1.13 ± 0.76
21 | GVLQTARRFPVPEGN | 3.71 ± 0.12
22 | GVLRQEFYKSANNSMKQWLF | inactive
23 | GVNARQGSHDLVLRIVR | 7.39 ± 0.075
24 | GVRHGHTRSVGYFSVSYTSL | -1.05 ± 0.54
25 | GVRKFLHPTTGPYMYTRCWA | 0.44 ± 0.45

Row | Substance | amyloid nucleation score
26 | GVRLDFYGNHFLWPAVSRGR | 3.63 ± 0.099
27 | GVSGCANVSCMCADVYPIAP | 9.77 ± 0.045
28 | GVTVKGAVIFYRY | 6.47 ± 0.074
29 | GVTWTV | -0.104 ± 0.25
30 | GVYWILFIAWLRKVRWYSDV | -0.144 ± 0.32
31 | GWASHGDNDSAMTGGSVWPG | 0.587 ± 0.62
32 | GWFGARRGMSIYRVHNWFVF | 5.738 ± 0.048
33 | GWGRLTY | 0.21 ± 0.74
34 | GWPHKVEFKVNDIFMIFSMM | 5.281 ± 0.034
35 | GWQGTLVNCLEDYVCYVCHA | 5.34 ± 0.058
36 | GWVCRKRWVVLYMKICMIRR | -0.249 ± 0.21
37 | GWVMVVPFPCMIVVVSAVGS | -0.152 ± 0.4
38 | GWVNRIYTRQLECSSLEYFF | 3.17 ± 0.11
39 | GYEASHSRFASSHLTPWGKR | 1.74 ± 0.32
40 | GYFKRHLRM | -0.619 ± 1
41 | GYLVYFLCINRLACCSYLAT | 7.981 ± 0.065
42 | GYNHFFTNDIISRGFPVSFK | inactive
43 | GYRYWRTACSALFRWSEMC | 0.948 ± 0.26
44 | GYSGVLILWEVVICWYGVTG | -0.313 ± 0.61
45 | GYSYTLRDRCESRLTLRSDV | 0.382 ± 0.37
46 | GYTRNHSLCFFFRMLYM | -1.29 ± 1
47 | GYVFASSVD | 0.791 ± 0.81
48 | HAMWCFGFIVLGGGNDIRIW | 8.219 ± 0.045
49 | HAPPNCVSSIHSRRVSSWHE | 0.333 ± 0.65
50 | HCGCMEQA | 0.486 ± 0.8

Row | Substance | amyloid nucleation score
51 | HCGYRVIELDLSRLASRSLR | 0.195 ± 0.32
52 | HCHWWEGWRVEVYCLFPVTT | 7.852 ± 0.064
53 | HCNLSWSCTSGIALSRT | 4.54 ± 0.1
54 | HCSWLYVLSYVSMSNICIGY | -0.876 ± 0.76
55 | HCVLYCNMALFLQRSHRASC | 8.484 ± 0.039
56 | HCVMLHGGSPRHLNRRTDIC | 0.292 ± 0.27
57 | HDMEYKVMDRIARM | -0.501 ± 1.1
58 | HEHLLPRT | 0.02 ± 0.74
59 | HEPGFHYYCY | 2.43 ± 0.1
60 | HEQLW | -0.243 ± 0.48
61 | HEVYNKGPT | inactive
62 | HFDFGFIGRDVIDVIDVRTN | 0.039 ± 0.46
63 | HFDSYNRNSMSSRPSVGILS | -0.441 ± 1.1
64 | HFGAFMHCVCTRLKMS | -0.08 ± 0.61
65 | HFMIVSLDGNHVMTTAAGVA | 0.233 ± 0.43
66 | HFWVLFMLEETQSKFYLQST | -0.923 ± 0.64
67 | HGDMYRRQDVVSGSNE | 0.153 ± 0.49
68 | HGGQEAVHLRRCGGYDMSKA | 0.451 ± 0.42
69 | HGKCVFGLPVLLQWKLGDQT | 0.607 ± 0.57
70 | HGRRQGFAVTVGN | 0.355 ± 0.45
71 | HGTIFTIYVC | -0.875 ± 0.42
72 | HGVLVIVRAYVHVGEWVAQL | 1.96 ± 0.4
73 | HGYHSGTLIALYVDN | inactive
74 | HHFNLPMKKGRFVSLGFSLV | -0.623 ± 1
75 | HHFTFQAAYFRNIPLESADE | 0.906 ± 0.23

Row | Substance | amyloid nucleation score
76 | HHIRSFVETGGDTWWGRCSR | 1.05 ± 0.21
77 | HHKLLGWFDVEKGMPVRLWA | 0.148 ± 0.43
78 | HHLLVRMSMCC | 4.49 ± 0.058
79 | HIDVLMGCWMRIVTWSR | 2.17 ± 0.29
80 | HIEVSACTRFLILNIHLRII | -1.46 ± 0.53
81 | HIIASCTV | 1.18 ± 0.38
82 | HILMKN | -0.013 ± 0.42
83 | HINFRSVITVV | -0.81 ± 0.44
84 | HISCMKLLSRLGYTCESLMW | -1.19 ± 0.55
85 | HIWTEVFIYVCSWRLYTTRV | -1.48 ± 0.64
86 | HKETSFDGHFAICWCYTCRH | 5.216 ± 0.046
87 | HKGVLEINSRVETLRSSAVN | -0.545 ± 0.63
88 | HKLFHLDSVQVYKQYGKEAI | 1.16 ± 0.18
89 | HKVQLVWPFVYLVEVQRRSG | 2.85 ± 0.089
90 | HLDPRAPSVVWTMADGEEDA | 0.837 ± 0.22
91 | HLFLRFADSSYWIS | 1.24 ± 0.35
92 | HLGSDRGDAWVANVKPERWD | 1.03 ± 0.31
93 | HLHPGVYLKPFDGCGIINGI | 0.213 ± 0.8
94 | HLLHGPFMSLGG | -0.973 ± 1
95 | HLLHVSGLDEIEMWTGDF | -0.332 ± 0.39
96 | HLLRKDVPQAWT | 3.29 ± 0.11
97 | HLPGYSPIDCRKGLVLGRCT | 0.027 ± 0.54
98 | HLRYGGFAV | 0.085 ± 0.2
99 | HLTNLDFT | -1.1 ± 0.44
100 | HMAVNTTALAKNLITG | -0.401 ± 0.55

Row | Substance | amyloid nucleation score
101 | HMNFRWLYMSIYVISLLEAL | inactive
102 | HMNYKYFWGGLFNRMLGQLN | inactive
103 | HMSGLNGLGCLGTCLWLCSS | inactive
104 | HNGIMFTCYLSP | 5.944 ± 0.053
105 | HNLLSRSAQPRGPLRPVRRH | 2.35 ± 0.16
106 | HNRYYGVIYVSLKICKLAFR | 6.476 ± 0.027
107 | HNYAVS | -0.711 ± 0.54
108 | HPGMDF | inactive
109 | HPHIFDLVVIYCQNGHV | 6.92 ± 0.075
110 | HPMQLLTSAQIKG | 0.863 ± 0.41
111 | HPSLVAGDWRFTGPLFCSLG | 4.02 ± 0.071
112 | HQDRERTRVPSIILFSLFTY | 1.71 ± 0.17
113 | HRDKLKVSPQITRSSFRRLS | 0.423 ± 0.26
114 | HRKAYEPWFGCNMTYAGLGN | -0.232 ± 0.65
115 | HRRSFGSQMYL | inactive
116 | HRSCVDTDVSDGWKGVESEA | 0.599 ± 0.64
117 | HRSLIIF | 1.97 ± 0.19
118 | HRVSMKEGVEC | 0.256 ± 0.31
119 | HRWVVWEYTGLAFYLAALEY | -0.469 ± 0.36
120 | HSAIDMWS | -0.903 ± 0.44
121 | HSFGRKYFFTF | -0.307 ± 0.55
122 | HSFHTVSTARRLKQDPYMR | -0.387 ± 0.64
123 | HSFNPNTCYLKGIDDALLGF | -0.838 ± 0.62
124 | HSHPCDREFLPRMHAWLDSS | -0.135 ± 0.33
125 | HSKGHILLTSNSNVFRLGRS | 0.166 ± 0.62

Row | Substance | amyloid nucleation score
126 | HSLCLVVLGFML | 5.428 ± 0.04
127 | HSLLSYMFSFQLTNMNCDLG | -0.117 ± 0.56
128 | HSLVTDEASCLTDRGHVGQV | 1.22 ± 0.27
129 | HSRKFADVKSWLTTDKKRIR | 0.37 ± 0.48
130 | HSVLEYFVTLCSNFLLWWVL | -0.192 ± 0.65
131 | HTDSLLWIPRVHFCVFF | inactive
132 | HTSSLF | -0.156 ± 0.3
133 | HTVTKVTLRLVCTMGCFKMM | 0.135 ± 0.65
134 | HVCCLKLVRCAGGGFVVKHV | 0.779 ± 0.18
135 | HVGFHQKVRSELCRA | 0.087 ± 0.51
136 | HVISTSW | inactive
137 | HVIVMYGSIY | 3.19 ± 0.12
138 | HVKASGP | 0.339 ± 0.35
139 | HVLTAGNHVGSVMNWHANEM | inactive
140 | HVMCR | 0.225 ± 0.19
141 | HVRVYHPGQMNCSRYNTMQ | 0.217 ± 0.65
142 | HVVTCMRILFPSDKGSCFVK | -0.142 ± 0.37
143 | HVVTRVSFESVFCLFTYF | 3.83 ± 0.085
144 | HWERLIGNLM | -0.791 ± 0.36
145 | HWSAS | 1.35 ± 0.47
146 | HYAFVLGYKFYYGVANYCDG | 0.886 ± 0.66
147 | HYAVTYLLGYSVGRVLYLWK | -0.509 ± 0.79
148 | HYSFYLVDYSFNISVGYFCT | 0.571 ± 0.39
149 | HYSMHVNGDTAAGTYAQAFC | -0.472 ± 0.76
150 | HYSRI | 0.647 ± 0.58

Row | Substance | amyloid nucleation score
151 | HYYLSTVSVYIGMPIRWFSG | 0.371 ± 0.38
152 | IAAVDENCRVVCQIIFLSKV | inactive
153 | IAFYMLSWGMMLV | -0.074 ± 0.8
154 | IAIFWSYWGDVIVYSGMVLE | -0.187 ± 0.55
155 | IAIPSDF | -0.214 ± 0.49
156 | IAKFTVMDFYGMVVAYSNCR | 1.12 ± 0.42
157 | ICAGISKKSGGTWSRARVCS | inactive
158 | ICFYLLHDRIHHSWD | 5.3 ± 0.096
159 | ICIVGRWYRASVFRVLEDYR | inactive
160 | ICLFDY | -2.02 ± 0.62
161 | ICRDWVDDNVFKIMGRTQRS | 0.099 ± 0.45
162 | ICSPFVFGFCGTNFRRVLHR | 6.978 ± 0.033
163 | ICVMSQCTQMYRMKICGSLQ | 0.568 ± 0.29
164 | ICWPMGICLNNSDSVLLGEC | inactive
165 | ICYKVLAMDLMLCMSGGVLV | 2.1 ± 0.092
166 | IDDARRYCRQNRFTVSMGNC | -0.112 ± 0.54
167 | IDDVEGPVAPFGIATVQDQP | 1.51 ± 0.46
168 | IDFSRQTYLNCKKSRSSLLS | -0.437 ± 0.61
169 | IDIEMIYERKPVGRIFSDT | -1.25 ± 0.42
170 | IDLFVCAESMDRRGVTIPRS | 0.041 ± 0.35
171 | IDSDKEAFRTFLWTLDMYRL | -0.536 ± 1
